From patent EP4480964A1, “TRANSFERRIN RECEPTOR-BINDING MOLECULES, CONJUGATES THEREOF AND THEIR USES TO PREVENT OR TREAT MUSCULAR DISEASES” (Vect-Horus, priority 2023, dated 2024)

Assays:
[1] = target: T1, mTfR (Mus musculus, UniProt Q62351); assay: Competition assay with fluorescent reference C5-Alexa680 on living Neuro-2a cells; format: binding; conditions: cells expressing murine TfR (Neuro-2a), C5-Alexa680 100 nM, 3 hrs at 37°C; Ki similar or lower than free VHHs
T1 construct: living cells expressing the receptor of interest, namely murine neuroblastoma Neuro-2a cells (N2a); endogenous in cells; host or cells: Neuro-2a (N2a) murine neuroblastoma cells
T1 sequence (Q62351 whole entry): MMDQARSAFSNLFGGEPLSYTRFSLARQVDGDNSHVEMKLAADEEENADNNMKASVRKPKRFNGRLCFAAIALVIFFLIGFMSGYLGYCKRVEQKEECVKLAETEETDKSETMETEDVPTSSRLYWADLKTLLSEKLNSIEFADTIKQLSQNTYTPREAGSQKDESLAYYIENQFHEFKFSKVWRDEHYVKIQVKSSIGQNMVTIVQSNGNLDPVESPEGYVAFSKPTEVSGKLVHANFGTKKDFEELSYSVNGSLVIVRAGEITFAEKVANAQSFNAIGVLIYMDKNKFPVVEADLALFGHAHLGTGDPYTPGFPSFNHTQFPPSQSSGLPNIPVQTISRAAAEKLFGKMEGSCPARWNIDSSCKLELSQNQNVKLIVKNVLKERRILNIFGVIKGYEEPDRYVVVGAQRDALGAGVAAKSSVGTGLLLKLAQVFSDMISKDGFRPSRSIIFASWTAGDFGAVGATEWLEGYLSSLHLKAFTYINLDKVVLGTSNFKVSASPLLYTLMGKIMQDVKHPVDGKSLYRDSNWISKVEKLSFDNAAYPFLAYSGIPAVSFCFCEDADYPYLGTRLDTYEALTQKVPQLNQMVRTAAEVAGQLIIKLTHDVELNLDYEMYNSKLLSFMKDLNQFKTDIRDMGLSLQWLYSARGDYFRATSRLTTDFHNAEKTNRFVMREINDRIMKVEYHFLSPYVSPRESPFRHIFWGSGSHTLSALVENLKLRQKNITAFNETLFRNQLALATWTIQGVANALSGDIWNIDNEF
Protocol: (§1) The binding of VHH-Oligo conjugates to mTfR, rhTfR and hTfR was evaluated using a competition assay on living cells expressing the receptor of interest, namely murine neuroblastoma Neuro-2a cells (N2a), CHO cells genetically engineered by the inventors to stably express the macaque rhesus TfR fused to the eGFP protein in C-terminal (CHO-rhTfR-GFP cells), or human breast ductal carcinoma MCF-7 cells, respectively. MCF-7 and N2a cells were grown in Dulbecco's Modified Eagle Medium (DMEM) GlutaMAX supplemented with 10% v/v FBS in 5% CO2 at 37°C. CHO-rhTfR-GFP cells were grown in Ham F12 GlutaMAX supplemented with 10% v/v FBS in 5% CO2 at 37°C. Cells were seeded two days before experiments in 96-well plates at a density of 50.000 cells/well. On the day of the experiment, free VHHs or VHH-Oligo conjugates diluted at various concentrations in DMEM supplemented with 1% bovine serum albumin (BSA) (MCF-7 and N2a cells) or in Ham F12 supplemented with 1% BSA (CHO-rhTfR-GFP cells) were co-incubated at various concentrations on each cell line during 3 hrs at 37°C with a subsaturating concentration of the fluorescent reference compound C5-Alexa680 (100 nM on N2a and CHO-rhTfR-GFP cell lines, 10 nM on MCF-7 cells). After treatment, cells were washed with D-PBS and dissociated by incubating with Trypsin/EDTA for 5 mins at 37°C, before the addition of cold culture media (4°C) to inhibit Trypsin activity. Resuspended cells were transferred in a 96-deepwell plate (V-bottom) containing 1% fetal bovine serum (FBS) / 0.02% sodium azide in phosphate-buffered saline (PBS) and then centrifuged for 5 min at 2000 rpm at 4°C. After removing the supernatant, 5 mM EDTA in D-PBS and 4% paraformaldehyde (PFA) (v/v 1:1) were added into wells to fix cells for 15 min at room temperature. PFA was removed by centrifugation (5 min, 3000 rpm, 4°C) and cells were resuspended with 5 mM EDTA in D-PBS. Then the cellular A680-associated fluorescence signal was quantified using an Attune™ NxT flow cytometer (Thermo Fisher Scientific) equipped with Attune™ NxT v3.1.2. Experimental data (experimental triplicates) were fitted with GraphPad Prism® software using a nonlinear fit to determine the apparent Ki inhibition constants. Graphs of Figure 1 show representative inhibition curves and tables show means ± SD of at least 2 independent experiments.

[2] = tested on: rhTfR; assay: Competition assay with fluorescent reference C5-Alexa680 on living CHO-rhTfR-GFP cells; format: binding; conditions: cells expressing macaque rhesus TfR (CHO-rhTfR-GFP), C5-Alexa680 100 nM, 3 hrs at 37°C; Ki similar or lower than free VHHs
Protocol: as §1

[3] = target: T2, hTfR (Homo sapiens, UniProt P02786); assay: Competition assay with fluorescent reference C5-Alexa680 on living MCF-7 cells; format: binding; conditions: cells expressing human TfR (MCF-7), C5-Alexa680 10 nM, 3 hrs at 37°C; Ki similar or lower than free VHHs
T2 construct: or human breast ductal carcinoma MCF-7 cells, respectively; endogenous in cells; host or cells: MCF-7 human breast ductal carcinoma cells
T2 sequence (P02786 whole entry): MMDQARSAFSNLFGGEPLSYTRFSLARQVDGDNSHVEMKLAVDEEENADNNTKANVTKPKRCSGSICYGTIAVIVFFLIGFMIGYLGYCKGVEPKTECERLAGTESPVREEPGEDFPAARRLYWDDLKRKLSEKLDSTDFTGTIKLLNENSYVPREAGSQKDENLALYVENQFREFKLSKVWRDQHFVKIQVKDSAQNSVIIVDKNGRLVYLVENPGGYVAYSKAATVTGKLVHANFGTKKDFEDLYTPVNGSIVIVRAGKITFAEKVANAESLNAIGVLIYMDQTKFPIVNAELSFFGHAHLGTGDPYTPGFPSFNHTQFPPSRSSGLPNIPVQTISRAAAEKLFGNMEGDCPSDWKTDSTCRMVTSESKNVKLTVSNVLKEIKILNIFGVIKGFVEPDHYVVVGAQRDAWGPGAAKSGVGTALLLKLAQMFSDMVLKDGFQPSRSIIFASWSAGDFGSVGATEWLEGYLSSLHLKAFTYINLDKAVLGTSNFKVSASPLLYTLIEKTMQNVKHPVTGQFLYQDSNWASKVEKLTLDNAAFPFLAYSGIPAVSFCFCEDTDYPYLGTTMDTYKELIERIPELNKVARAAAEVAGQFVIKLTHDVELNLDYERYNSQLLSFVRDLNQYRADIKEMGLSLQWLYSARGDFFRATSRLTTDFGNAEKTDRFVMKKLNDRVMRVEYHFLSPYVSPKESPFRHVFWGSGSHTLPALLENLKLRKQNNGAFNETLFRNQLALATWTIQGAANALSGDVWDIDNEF
Protocol: as §1

[4] = tested on: hSOD1 mRNA; assay: Free uptake gene silencing (RT-qPCR) in human cell lines; format: cell-based; conditions: 3 days, various human cell lines (Figure 2A)
Protocol: Human cell lines MCF-7 (breast ductal carcinoma cells), Igrov-1 (ovarian cancer cells) and MIA PaCa-2 cells (pancreatic cancer cells) and the murine neuroblastoma cell line Neuro-2a were grown in DMEM GlutaMAX supplemented with 10% v/v FBS in 5% CO2 at 37°C. For free uptake experiments, cells were seeded in 96-well plates at a density of 2.000 cells/well. Twenty-four hours later, the medium was removed, and cells were further incubated during 3 days in DMEM supplemented with 1% v/v FBS containing various concentrations of free or conjugated oligos. […] Relative RNA expression levels were quantified by RT-qPCR using the TaqMan™ Fast Universal PCR Master Mix (2X) no AmpErase™ UNG kit (Applied Biosystems) and commercially available TaqMan™ probes for murine SOD1, human SOD1 or human MALAT-1 genes (Applied Biosystems). Expression data were analyzed using the DDCq method normalized to the expression of reference RpL 13 or GAPDH genes, based on raw quantification cycle (Cq) values (Bustin et al.) and are presented as mRNA levels relative to untreated cells. Experimental data (experimental triplicates) are presented as means ± standard deviation (SD) and were analysed with GraphPad Prism® software using a three-parameter log(inhibitor) vs. response nonlinear regression to determine the IC50. […]

[5] = tested on: SOD1 mRNA; assay: In vivo mRNA knock-down by VHH-siSOD1h conjugate in non-human primates; set-up: species or system olive baboons (Papio Anubis)
Protocol: VHH-siSOD1h conjugates targeting the human and non-human primate (NHP) SOD1 gene were assessed for their ability to mediate SOD1 mRNA knock-down in muscle tissues of olive baboons (Papio Anubis). PBS vehicle (control) or a TfR-binding VHH-siSOD 1h conjugate was administered as a single intravenous (IV infusion, 30 min) in olive baboons (males, 10-17-month-old, 2.6-4.5kg) at the dose of 5 mg/kg (siRNA molar equivalent). At indicated times following administration, approximately 100 mg samples of gastrocnemius, quadriceps and tibialis anterior muscle were withdrawn under general anesthesia, snap-frozen in 10 vol. ofNucleoProtect RNA stabilization reagent (Macherey-Nagel) and stored at -20°C. […] RNA samples were analyzed and dosed using a Fragment Analyzer RNA kit in a Fragment Analyzer system (Agilent). Relative RNA expression levels were quantified by RT-qPCR using the TaqMan™ Fast Universal PCR Master Mix (2X) no AmpErase™ UNG kit (Applied Biosystems) and commercially available TaqMan™ probes for […] and RpL13 genes (Applied Biosystems). Expression data were analyzed using the DDCq method normalized to the expression of the reference RpL13 gene, based on raw quantification cycle (Cq) values (Bustin et al.). The results are expressed as means ± standard error of the mean (SEM) and are presented as mRNA levels relative to the control animals injected with PBS. […]

| Molecule | inhibition of the binding and uptake of the reference compound [1] | inhibition of the binding and uptake of the reference compound [3] | inhibition of the binding and uptake of the reference compound [2] | effect on hSOD1 mRNA levels [4] | knock-down of SOD1 mRNA ([5]; all muscle tissues tested (gastrocnemius, quadriceps, tibialis anterior), single IV infusion 5 mg/kg (siRNA molar equivalent) (Figure 12)) | duration of knock-down ([5]; single IV infusion 5 mg/kg (siRNA molar equivalent)) |
| --- | --- | --- | --- | --- | --- | --- |
| C5-siSOD1m: VHH-Oligo conjugate of VHH C5 and siSOD1m (conjugate, left off: things letters cannot carry; small tags and cut ends) VHH: EVQLVESGGGVVQPGGSLKLSCVASGTDFSINFIRWYRQAPGKQREFVAGFTATGNTNYADSMKGRFTISRDNTKNAVYLQIDSLKPEDTAVYYCYMLDKWGQGTQVTVSS | concentration-dependent inhibition | concentration-dependent inhibition | concentration-dependent inhibition | – | – | – |
| C5-siSOD1h: VHH-Oligo conjugate of VHH C5 and siSOD1h; Figure 12 legend: VHH is C5 (conjugate, left off: things letters cannot carry; small tags and cut ends) VHH: EVQLVESGGGVVQPGGSLKLSCVASGTDFSINFIRWYRQAPGKQREFVAGFTATGNTNYADSMKGRFTISRDNTKNAVYLQIDSLKPEDTAVYYCYMLDKWGQGTQVTVSS | concentration-dependent inhibition | concentration-dependent inhibition | concentration-dependent inhibition | potent and concentration-dependent hSOD1 mRNA downregulation | 60% | more than three months |

More lines, main results first:

| inhibition of the binding and uptake of the reference compound [1] | inhibition of the binding and uptake of the reference compound [3] | Molecule | inhibition of the binding and uptake of the reference compound [2] | effect on hSOD1 mRNA levels [4] | knock-down of SOD1 mRNA ([5]; all muscle tissues tested (gastrocnemius, quadriceps, tibialis anterior), single IV infusion 5 mg/kg (siRNA molar equivalent) (Figure 12)) | duration of knock-down ([5]; single IV infusion 5 mg/kg (siRNA molar equivalent)) |
| --- | --- | --- | --- | --- | --- | --- |
| concentration-dependent inhibition | concentration-dependent inhibition | B8-siSOD1m: VHH-Oligo conjugate of VHH B8 and siSOD1m (conjugate, left off: things letters cannot carry; small tags and cut ends) VHH: EVQLVESGGGVVQPGGSLRLSCAASGEIFSINFMRWYRQAPGKQREWVAGFTRDGSTNYPDSAKGRFTISRDNAKNTVYLQIDSLKPEDTAVYYCYMLDTWGQGTQVTVSS | concentration-dependent inhibition | – | – | – |
| concentration-dependent inhibition | concentration-dependent inhibition | B8-siSOD1h: VHH-Oligo conjugate of VHH B8 and siSOD1h (conjugate, left off: things letters cannot carry; small tags and cut ends) VHH: EVQLVESGGGVVQPGGSLRLSCAASGEIFSINFMRWYRQAPGKQREWVAGFTRDGSTNYPDSAKGRFTISRDNAKNTVYLQIDSLKPEDTAVYYCYMLDTWGQGTQVTVSS | concentration-dependent inhibition | potent and concentration-dependent hSOD1 mRNA downregulation | – | – |
